Target: the molecule itself
Experiment: negative-stain electron microscopy

B1: Mod5 (enzyme, S. cerevisiae, UniProt P07884 1-428, looked up)
chain: MLKGPLKGCLNMSKKVIVIAGTTGVGKSQLSIQLAQKFNGEVINSDSMQVYKDIPIITNKHPLQEREGIPHHVMNHVDWSEEYYSHRFETECMNAIEDIHRRGKIPIVVGGTHYYLQTLFNKRVDTKSSERKLTRKQLDILESTDPDVIYNTLVKCDPDIATKYHPNDYRRVQRMLEIYYKTGKKPSETFNEQKITLKFDTLFLWLYSKPEPLFQRLDDRVDDMLERGALQEIKQLYEYYSQNKFTPEQCENGVWQVIGFKEFLPWLTGKTDDNTVKLEDCIERMKTRTRQYAKRQVKWIKKMLIPDIKGDIYLLDATDLSQWDTNASQRAIAISNDFISNRPIKQERAPKALEELLSKGETTMKKLDDWTHYTCNVCRNADGKNVVAIGEKYWKIHLGSRRHKSNLKRNTRQADFEKWKINKKETVE
B1: binds.
